Holding throughout (assay): SPOT array
One test addresses T1, Lsb3, P43603.
T1 sequence (P43603 385-451, looked up): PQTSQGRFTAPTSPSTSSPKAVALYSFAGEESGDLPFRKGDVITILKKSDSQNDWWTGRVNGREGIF
The note with it: median of control spots 406.

A further test has as its target T2, Bud14, P27637.
T2 sequence (P27637 247-328, looked up): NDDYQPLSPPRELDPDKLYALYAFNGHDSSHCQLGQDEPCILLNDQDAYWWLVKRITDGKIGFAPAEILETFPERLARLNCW
The note with it: median of control spots 956.

The target of another test is T3, Lsb4, P32793.
T3 sequence (P32793 402-468, looked up): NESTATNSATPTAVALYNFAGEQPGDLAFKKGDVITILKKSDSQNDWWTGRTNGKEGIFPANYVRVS
The note with it: median of control spots 397.

The target in another test is T4, Sla1-2, P32790.
T4 sequence (P32790 60-140, looked up): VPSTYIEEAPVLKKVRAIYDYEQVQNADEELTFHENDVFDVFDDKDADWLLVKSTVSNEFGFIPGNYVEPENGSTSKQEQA
The conditions noted are these: median of control spots 712.

Another test addresses GST. The note with it: median of control spots 978.
The target of a further test is T5, Boi2, P39969.
T5 sequence (P39969 32-116, looked up): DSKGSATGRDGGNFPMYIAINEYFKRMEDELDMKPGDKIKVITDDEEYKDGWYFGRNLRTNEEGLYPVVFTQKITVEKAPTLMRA
The note with it: median of control spots 1161.

A further test has as its target T6, Hse1, P38753.
T6 sequence (P38753 208-285, looked up): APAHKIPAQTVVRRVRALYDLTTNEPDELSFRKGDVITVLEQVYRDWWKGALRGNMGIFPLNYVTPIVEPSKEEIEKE
The note with it: median of control spots 1727.

The next test concerns the target T7, Fus1, P11710.
T7 sequence (P11710 432-512, looked up): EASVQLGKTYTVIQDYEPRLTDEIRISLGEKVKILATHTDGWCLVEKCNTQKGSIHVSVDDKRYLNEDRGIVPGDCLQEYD
The note with it: median of control spots 1200.

The next test addresses T8, Sla1-3, P32790.
T8 sequence (P32790 344-424, looked up): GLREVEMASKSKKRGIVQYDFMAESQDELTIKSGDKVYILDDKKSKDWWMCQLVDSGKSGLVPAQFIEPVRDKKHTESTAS
The conditions noted are these: median of control spots 5475.

Another test has as its target T9, Boi1, P38041.
T9 sequence (P38041 1-86, looked up): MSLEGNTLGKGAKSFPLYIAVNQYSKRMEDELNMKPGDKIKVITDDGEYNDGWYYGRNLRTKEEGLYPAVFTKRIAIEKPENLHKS
The note with it: median of control spots 1162.

The target of a further test is T10, Pin3, Q06449.
T10 sequence (Q06449 53-122, looked up): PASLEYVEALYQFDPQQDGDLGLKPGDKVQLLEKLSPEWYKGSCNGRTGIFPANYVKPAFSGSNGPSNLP
The conditions noted are these: median of control spots 2171.

For the next test, the target named is T11, Bbc1, P47068.
T11 sequence (P47068 1-78, looked up): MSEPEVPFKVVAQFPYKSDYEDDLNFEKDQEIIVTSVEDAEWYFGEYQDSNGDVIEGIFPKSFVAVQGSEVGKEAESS
The note with it: median of control spots 796.

Another test concerns the target T12, Bzz1-1, P38822.
T12 sequence (P38822 478-572, looked up): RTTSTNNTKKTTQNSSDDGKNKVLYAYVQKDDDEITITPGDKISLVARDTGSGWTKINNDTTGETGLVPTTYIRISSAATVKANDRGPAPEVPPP
The note with it: median of control spots 4446.

For a further test, the target named is T13, Nbp2, Q12163.
T13 sequence (Q12163 103-180, looked up): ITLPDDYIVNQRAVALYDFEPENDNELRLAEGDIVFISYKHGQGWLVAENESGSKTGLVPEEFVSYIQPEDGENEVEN
The note with it: median of control spots 357.

The target of a further test is T14, Hof1, Q05080.
T14 sequence (Q05080 590-669, looked up): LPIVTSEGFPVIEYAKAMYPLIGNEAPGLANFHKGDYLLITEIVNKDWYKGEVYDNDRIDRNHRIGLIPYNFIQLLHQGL
The note with it: median of control spots 4086.

The target of another test is T15, Abp1, P15891.
T15 sequence (P15891 535-592, looked up): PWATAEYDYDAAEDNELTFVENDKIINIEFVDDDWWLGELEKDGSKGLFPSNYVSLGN
The note with it: median of control spots 935.

For a further test, the target named is T16, Myo5, Q04439.
T16 sequence (Q04439 1072-1160, looked up): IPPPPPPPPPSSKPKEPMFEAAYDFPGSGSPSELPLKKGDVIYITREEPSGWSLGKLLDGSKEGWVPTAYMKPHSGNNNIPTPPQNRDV
The note with it: median of control spots 471.

The next test deals with T17, Pex13, P80667.
T17 sequence (P80667 295-386, looked up): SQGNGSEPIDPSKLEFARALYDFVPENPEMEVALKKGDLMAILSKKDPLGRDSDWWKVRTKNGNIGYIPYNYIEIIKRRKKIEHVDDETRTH
The note with it: median of control spots 1341.

The next test addresses T18, Bzz1-2, P38822.
T18 sequence (P38822 568-633, looked up): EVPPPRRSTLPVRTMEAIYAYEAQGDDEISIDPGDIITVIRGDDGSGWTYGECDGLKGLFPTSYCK
The conditions noted are these: median of control spots 4538.

The target of the next test is T19, Lsb1, P53281.
T19 sequence (P53281 45-122, looked up): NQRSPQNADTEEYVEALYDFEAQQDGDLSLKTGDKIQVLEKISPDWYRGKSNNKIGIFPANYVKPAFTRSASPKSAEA
The note with it: median of control spots 388.

The target in a further test is T20, Cyk3, Q07533.
T20 sequence (Q07533 1-83, looked up): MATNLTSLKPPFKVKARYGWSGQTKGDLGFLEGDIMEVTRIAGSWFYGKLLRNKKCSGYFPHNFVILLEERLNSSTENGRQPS
The conditions noted are these: median of control spots 1451.

Another test deals with T21, Cdc25, P04821.
T21 sequence (P04821 50-136, looked up): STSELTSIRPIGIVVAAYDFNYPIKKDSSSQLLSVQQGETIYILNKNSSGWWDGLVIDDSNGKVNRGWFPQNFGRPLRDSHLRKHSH
The conditions noted are these: median of control spots 969.

A further test addresses Bem1-2, P29366. The conditions noted are these: median of control spots 4347.
A further test deals with Myo3, P36006. The conditions noted are these: median of control spots 468.
In the next test the target is Sho1, P40073. The note with it: median of control spots 1148.
Chain of Sho1, P40073 (P40073 287-367): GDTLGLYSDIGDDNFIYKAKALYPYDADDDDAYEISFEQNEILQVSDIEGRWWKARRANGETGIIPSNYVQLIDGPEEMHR
The next test concerns the target Rvs167, P39743. The conditions noted are these: median of control spots 2707.
A further test deals with Bem1-1, P29366. The conditions noted are these: median of control spots 4282.
Chain of Bem1-1, P29366 (P29366 55-141): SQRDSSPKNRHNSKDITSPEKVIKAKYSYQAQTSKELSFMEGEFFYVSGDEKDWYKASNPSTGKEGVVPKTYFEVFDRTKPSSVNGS

“And” between values parts separate entries of the source, which are not always exact repeats. Equal values may be shown once.

Chain of Bem1-2, P29366 (P29366 139-227): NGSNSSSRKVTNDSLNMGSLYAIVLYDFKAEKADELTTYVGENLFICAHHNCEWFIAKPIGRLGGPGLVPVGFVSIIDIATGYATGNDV
Chain of Rvs167, P39743 (P39743 419-482): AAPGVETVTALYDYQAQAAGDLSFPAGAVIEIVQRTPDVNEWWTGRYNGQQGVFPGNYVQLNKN

Regarding GPPPPLPPPLFPSSS, the SPOT intensity stood at 0 with Lsb3, P43603; 0 with Bud14, P27637; 10 with Lsb4, P32793; 0 with Sla1-2, P32790; 0 with GST; 0 with Boi2, P39969. The SPOT intensity in the test with Hse1, P38753 amounted to 0; in the test with Fus1, P11710, 0; with Sla1-3, P32790, 0; with Boi1, P38041 it was 0; with Pin3, Q06449, 0; with Bbc1, P47068, 0. Besides, the SPOT intensity in the test with Bzz1-1, P38822 was 0; with Nbp2, Q12163, 0; in the test with Hof1, Q05080, 1690; in the test with Abp1, P15891, 6; with Myo5, Q04439 it was 362; with Pex13, P80667, 725. Also, the SPOT intensity worked out at 0 with Bzz1-2, P38822; 64 with Lsb1, P53281; 0 in the test with Cyk3, Q07533; 0 with Cdc25, P04821; 0 with Bem1-2, P29366; 575 in the test with Myo3, P36006. Further, the SPOT intensity in the test with Sho1, P40073 was 0; with Rvs167, P39743 it was 0; with Bem1-1, P29366, 0.

In the case of LKPPIGRPPKFPKSP, the SPOT intensity in the test with Lsb3, P43603 was 3; with Bud14, P27637 it was 0; in the test with Lsb4, P32793, 0; with Sla1-2, P32790, 0; in the test with GST it was 0; with Boi2, P39969, 0. Besides, the SPOT intensity was determined as 1 in the test with Hse1, P38753; 0 with Fus1, P11710; 0 in the test with Sla1-3, P32790; 3 with Boi1, P38041; 0 in the test with Pin3, Q06449; 18 with Bbc1, P47068. Also, the SPOT intensity is 0 with Bzz1-1, P38822; 0 in the test with Nbp2, Q12163; 0 with Hof1, Q05080; 133 with Abp1, P15891; 117 in the test with Myo5, Q04439; 4 with Pex13, P80667. The SPOT intensity in the test with Bzz1-2, P38822 was found to be 0; in the test with Lsb1, P53281, 0; with Cyk3, Q07533, 0; with Cdc25, P04821, 0; with Bem1-2, P29366, 0; with Myo3, P36006, 397. In addition, the SPOT intensity in the test with Sho1, P40073 was determined as 24; with Rvs167, P39743, 0; with Bem1-1, P29366, 0.

Regarding SPAPIVPREPLRNEP, the SPOT intensity with Lsb3, P43603 was 46 and 25; with Bud14, P27637, 184 and 188; with Lsb4, P32793 it was 114 and 89; in the test with GST it was 1000 and 337; with Boi2, P39969, 28 and 50; with Hse1, P38753, 2790 and 3860. Also, the SPOT intensity was 227 and 99 with Fus1, P11710; 3540 and 3050 with Sla1-3, P32790; 45 and 64 with Boi1, P38041; 721 and 289 with Pin3, Q06449; 49 and 40 with Bbc1, P47068; 3070 and 3750 in the test with Bzz1-1, P38822. Also, the SPOT intensity with Hof1, Q05080 was 1550 and 3190; in the test with Abp1, P15891, 122 and 106; with Myo5, Q04439, 88 and 90; in the test with Pex13, P80667, 403 and 875; in the test with Bzz1-2, P38822, 4030 and 3640; with Cyk3, Q07533 it was 241 and 231. In addition, the SPOT intensity was 240 and 142 with Cdc25, P04821; 2910 and 3310 with Bem1-2, P29366; 122 and 104 in the test with Myo3, P36006; 138 and 78 with Sho1, P40073; 2590 and 3300 with Rvs167, P39743; 3190 and 3200 with Bem1-1, P29366.

Regarding VSKLRSPNTPRRLRK, the SPOT intensity was 72 and 49 in the test with Lsb3, P43603; 6 with Bud14, P27637; 206 and 92 in the test with Lsb4, P32793; 0 with Sla1-2, P32790; 3 and 1 with GST; 9 and 7 with Sla1-3, P32790. In addition, the SPOT intensity with Boi1, P38041 was 8 and 4; in the test with Pin3, Q06449, 5 and 3; with Bbc1, P47068, 223 and 226; in the test with Bzz1-1, P38822 it was 0; with Nbp2, Q12163, 0; with Abp1, P15891 it was 216 and 273. Also, the SPOT intensity in the test with Pex13, P80667 was 3 and 1; with Cyk3, Q07533, 2 and 1; in the test with Cdc25, P04821, 55 and 39; in the test with Myo3, P36006 it was 8 and 6; with Sho1, P40073, 267 and 126; in the test with Bem1-1, P29366, 1 and 3.

RHLKNIPRIPIFSIL: the SPOT intensity with Bud14, P27637 was 16 and 18; with Lsb4, P32793, 4 and 7; with Sla1-2, P32790 it was 0; with Boi2, P39969, 3 and 1; with Hse1, P38753 it was 307 and 687; with Fus1, P11710, 1870 and 1460. The SPOT intensity was 992 and 402 with Sla1-3, P32790; 14 and 10 with Boi1, P38041; 84 with Pin3, Q06449; 25 and 23 with Bbc1, P47068; 184 and 63 in the test with Nbp2, Q12163; 5560 and 3670 with Hof1, Q05080. For the same molecule, the SPOT intensity with Abp1, P15891 was 49 and 31; with Myo5, Q04439 it was 5 and 3; with Pex13, P80667, 163 and 113; with Bzz1-2, P38822 it was 394 and 164; with Cyk3, Q07533, 1 and 3; with Cdc25, P04821, 230 and 113. The SPOT intensity in the test with Bem1-2, P29366 is 4830 and 2260; with Myo3, P36006 it was 14 and 19; with Sho1, P40073 it was 160 and 101; with Bem1-1, P29366, 823 and 2170.

Source of the values: publication PMC2756588.
